Measured values reported in US12594285B2, “Compositions and methods for protecting against airborne pathogens and irritants” (APPLIED BIOLOGICAL LABORATORIES, INC., priority 2016, dated 2026).

What was measured:
[1] = test system: herpes simplex virus (topical application) and hepatitis C infection; conditions: before versus after contact with the virus; cited from earlier work
[2] = test system: Human Rhinovirus A16 (clinical strain: QCHRV.16); experiment: Apical Rhinovirus replication by quantitative RT-PCR (Example 6); format: cell-based; conditions: Example 6, 24 hours pi (D1)
[3] = in some studies; cited from earlier work

B1: lactoferrin: glycoprotein of approximately 703 amino acids and approximately 80 kD in exocrine secretions (protein, UniProt P02788 20-710, looked up)
Lactotransferrin: GRRRSVQWCAVSQPEATKCFQWQRNMRKVRGPPVSCIKRDSPIQCIQAIAENRADAVTLDGGFIYEAGLAPYKLRPVAAEVYGTERQPRTHYYAVAVVKKGGSFQLNELQGLKSCHTGLRRTAGWNVPIGTLRPFLNWTGPPEPIEAAVARFFSASCVPGADKGQFPNLCRLCAGTGENKCAFSSQEPYFSYSGAFKCLRDGAGDVAFIRESTVFEDLSDEAERDEYELLCPDNTRKPVDKFKDCHLARVPSHAVVARSVNGKEDAIWNLLRQAQEKFGKDKSPKFQLFGSPSGQKDLLFKDSAIGFSRVPPRIDSGLYLGSGYFTAIQNLRKSEEEVAARRARVVWCAVGEQELRKCNQWSGLSEGSVTCSSASTTEDCIALVLKGEADAMSLDGGYVYTAGKCGLVPVLAENYKSQQSSDPDPNCVDRPVEGYLAVAVVRRSDTSLTWNSVKGKKSCHTAVDRTAGWNIPMGLLFNQTGSCKFDEYFSQSCAPGSDPRSNLCALCIGDEQGENKCVPNSNERYYGYTGAFRCLAENAGDVAFVKDVTVLQNTDGNNNEAWAKDLKLADFALLCLDGKRKPVTEARSCHLAMAPNHAVVSRMDKVERLKQVLLHQQAKFGRNGSDCPDKFCLFQSETKNLLFNDNTECLARLHGKTTYEKYLGPQYVAGITNLKKCSTSPLLEACEFLRK
protection against viral infection [1]: protective before contact with the virus but not after

B2: soluble ICAM-1: soluble form of intercellular adhesion molecule 1, sole antiviral agent of formulations R3 and R4 (protein, UniProt P05362 28-480, looked up)
extracellular domain: QTSVSPSKVILPRGGSVLVTCSTSCDQPKLLGIETPLPKKELLLPGNNRKVYELSNVQEDSQPMCYSNCPDGQSTAKTFLTVYWTPERVELAPLPSWQPVGKNLTLRCQVEGGAPRANLTVVLLRGEKELKREPAVGEPAEVTTTVLVRRDHHGANFSCRTELDLRPQGLELFENTSAPYQLQTFVLPATPPQLVSPRVLEVDTQGTVVCSLDGLFPVSEAQVHLALGDQRLNPTVTYGNDSFSAKASVSVTAEDEGTQRLTCAVILGNQSQETLQTVTIYSFPAPNVILTKPEVSEGTEVTVKCEAHPRAKVTLNGVPAQPLGPRAQLLLKATPEDNGRSFSCSATLEVAGQLIHKNQTRELRVLYGPRLDERDCPGNWTWPENSQQTPMCQAWGNPLPELKCLKDGTFPLPIGESVTVTRDLEGTYLCRARSTQGEVTRKVTVNVLSPRYE
modifications: extracellular domain
notes: soluble form of intercellular adhesion molecule 1, sole antiviral agent of formulations R3 and R4
replication of HRV-A16 virus at D1 [2]: inhibited replication

B3: bovine lactoferrin: bovine form of the glycoprotein lactoferrin, 69% homology to human lactoferrin (protein, UniProt P24627 20-708, looked up)
Lactotransferrin: APRKNVRWCTISQPEWFKCRRWQWRMKKLGAPSITCVRRAFALECIRAIAEKKADAVTLDGGMVFEAGRDPYKLRPVAAEIYGTKESPQTHYYAVAVVKKGSNFQLDQLQGRKSCHTGLGRSAGWIIPMGILRPYLSWTESLEPLQGAVAKFFSASCVPCIDRQAYPNLCQLCKGEGENQCACSSREPYFGYSGAFKCLQDGAGDVAFVKETTVFENLPEKADRDQYELLCLNNSRAPVDAFKECHLAQVPSHAVVARSVDGKEDLIWKLLSKAQEKFGKNKSRSFQLFGSPPGQRDLLFKDSALGFLRIPSKVDSALYLGSRYLTTLKNLRETAEEVKARYTRVVWCAVGPEEQKKCQQWSQQSGQNVTCATASTTDDCIVLVLKGEADALNLDGGYIYTAGKCGLVPVLAENRKSSKHSSLDCVLRPTEGYLAVAVVKKANEGLTWNSLKDKKSCHTAVDRTAGWNIPMGLIVNQTGSCAFDEFFSQSCAPGADPKSRLCALCAGDDQGLDKCVPNSKEKYYGYTGAFRCLAEDVGDVAFVKNDTVWENTNGESTADWAKNLNREDFRLLCLDGTRKPVTEAQSCHLAVAPNHAVVSRSDRAAHVKQVLLHQQALFGKNGKNCPDKFCLFKSETKNLLFNDNTECLAKLGGRPTYEEYLGTEYVTAIANLKKCSTSPLLEACAFLTR
concentration required for an antimicrobial effect relative to human lactoferrin [3]: 1/10
